Measured values: article PMC4258232 (Cell stem cell, 2014)
Changes are numbered by the printed parent chain. Names may count otherwise. Like-named read-outs stand apart in the source and are kept apart here. Blank lines part the entries; values can stand above or below the binder they belong to.

Legend:
[1] = target: T1, GST-SET7/9 (full length) (UniProt Q8WTS6 1-366); assay: pull-down
T1 sequence (looked up): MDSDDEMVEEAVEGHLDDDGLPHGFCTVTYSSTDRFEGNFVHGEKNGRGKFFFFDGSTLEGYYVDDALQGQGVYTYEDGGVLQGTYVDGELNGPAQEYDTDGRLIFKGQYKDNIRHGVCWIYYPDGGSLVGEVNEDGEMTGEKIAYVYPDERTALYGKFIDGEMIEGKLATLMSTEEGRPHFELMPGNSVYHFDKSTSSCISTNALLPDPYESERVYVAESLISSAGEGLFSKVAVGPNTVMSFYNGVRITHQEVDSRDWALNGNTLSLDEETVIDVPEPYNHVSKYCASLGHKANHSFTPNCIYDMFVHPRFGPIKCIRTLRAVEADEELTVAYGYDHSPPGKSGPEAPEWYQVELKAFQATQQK

[2] = target: T1, GST-SET7/9 (full length); assay: pull-down; remark: listed apart in the source

binding result [1]: binds
B1: 6×HIS-LIN28A (full length) (natural protein, UniProt Q9H9Z2 1-209, looked up)
chain: MGSVSNQQFAGGCAKAAEEAPEEAPEDAARAADEPQLLHGAGICKWFNVRMGFGFLSMTARAGVALDPPVDVFVHQSKLHMEGFRSLKEGEAVEFTFKKSAKGLESIRVTGPGGVFCIGSERRPKGKSMQKRRSKGDRCYNCGGLDHHAKECKLPPQPKKCHFCQSISHMVASCPLKAQQGPSAQGKPTYFREEEEEIHSPTLLPEAQN

binding result [1]: binds
B2: 6×HIS-LIN28A-K135R (full length) (natural protein, UniProt Q9H9Z2 1-209, looked up)
chain: B1 chain with K135R

binding result [2]: binds
B3: LIN28A carboxyl terminus (amino acids 125-209) (domain or fragment, UniProt Q9H9Z2 125-209, looked up)
chain: KGKSMQKRRSKGDRCYNCGGLDHHAKECKLPPQPKKCHFCQSISHMVASCPLKAQQGPSAQGKPTYFREEEEEIHSPTLLPEAQN
